# Test results: patent publication US20250145724A1 (TWIST BIOSCIENCE, published 2025)
# Tests used:
# [1] = biological target: T1, hA2b receptor (human, UniProt P29275 1-332); assay: cell binding on hA2b HEK293T cells, one bar per antibody; the y axis has no label or unit and the antibody concentration is not given
# T1 construct: whole, on cells; also called adenosine A2B receptor
# T1 sequence (looked up): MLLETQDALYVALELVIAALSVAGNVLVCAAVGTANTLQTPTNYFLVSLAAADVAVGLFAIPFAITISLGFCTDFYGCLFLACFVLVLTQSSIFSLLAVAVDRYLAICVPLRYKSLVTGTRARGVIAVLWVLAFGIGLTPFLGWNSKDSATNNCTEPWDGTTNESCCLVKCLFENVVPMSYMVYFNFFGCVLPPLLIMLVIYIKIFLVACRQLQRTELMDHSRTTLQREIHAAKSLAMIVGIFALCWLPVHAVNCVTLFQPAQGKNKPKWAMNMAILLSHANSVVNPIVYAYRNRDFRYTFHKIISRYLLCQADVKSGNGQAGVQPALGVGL
# [2] = biological target: T2, Adenosine A2A receptor (human) (human, UniProt P29274 1-412); assay: cell binding titration from 100 nM, RL1-H MFI; panel 'Synthetic Library to A2a protein + ZM241385'
# T2 construct: also called hA2a; hA2a receptor
# T2 sequence (P29274 whole entry): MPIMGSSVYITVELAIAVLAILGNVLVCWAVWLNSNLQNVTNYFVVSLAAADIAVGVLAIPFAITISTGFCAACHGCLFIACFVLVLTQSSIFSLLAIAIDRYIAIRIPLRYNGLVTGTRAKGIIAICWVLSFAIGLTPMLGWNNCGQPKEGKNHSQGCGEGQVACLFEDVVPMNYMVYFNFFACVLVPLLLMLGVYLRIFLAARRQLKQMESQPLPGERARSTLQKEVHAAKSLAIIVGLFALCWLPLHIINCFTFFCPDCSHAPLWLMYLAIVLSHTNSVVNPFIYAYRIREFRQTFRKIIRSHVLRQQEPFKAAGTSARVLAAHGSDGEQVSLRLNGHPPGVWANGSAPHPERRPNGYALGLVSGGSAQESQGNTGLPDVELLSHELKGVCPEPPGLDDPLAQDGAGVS
# Protocol: (§1) Purified A2a immunoglobulins from Tables 15-18 were assayed for binding in a titration from 100 nM.
# [3] = biological target: T2, Adenosine A2A receptor (human); assay: flow cytometry titration 0.05-100 nM IgG, MFI; grey curve taken as HEK293-A2a cells, black as parent cells
# Protocol: (§2) Flow cytometry data showing binding to HEK293-A2a cells using immunoglobulins from variant libraries were generated using 100 nM IgG and compared to detected binding in parent cells. […] Selected variants were assessed for binding at concentrations titrated from 100 nM. […] Binding curves are plotted with IgG concentration vs. MFI (mean fluorescence intensity). […] Selected variants were assessed for binding at concentrations titrated from 100 nM. […] Binding curves are plotted with IgG concentration vs. MFI (mean fluorescence intensity).
# [4] = biological target: T2, Adenosine A2A receptor (human); assay: cell binding titration from 100 nM, RL1-H MFI; panel 'Immune Library to A2a protein + ZM241385'
# Protocol: as §1
# [5] = biological target: T2, Adenosine A2A receptor (human); assay: cell binding titration from 100 nM, RL1-H MFI; panel 'Mouse Immune Library to A2a protein'
# Protocol: as §1
# [6] = biological target: T2, Adenosine A2A receptor (human); assay: flow cytometry titration 0.05-100 nM IgG, MFI; grey curve and grey number taken as HEK293-A2a cells, black (ND) as parent cells, no legend on the sheet
# Protocol: as §2
# [7] = biological target: T2, Adenosine A2A receptor (human); assay: cell-based or functional assay
# [8] = biological target: T2, Adenosine A2A receptor (human); assay: cell-based or functional assay; remark: listed apart in the source
# [9] = biological target: T2, Adenosine A2A receptor (human); assay: flow cytometry titration of IgG from 100 nM on hA2a (RL1-H MFI against IgG in nM); EC50 from the table drawn beside the curves
binder,measurement,setting,value
"A2A-26 (antibody, V domains shown, Tested as IgG) VH: EVQLLESGGGLVQPGGSLRLSCAASGFTFSTYAMGWVRQAPGKGLEWVSGISGSAGSTYYADSVKGRFTISRDNSKNTLYLQMNSLRAEDTAVYYCAAARGHWRWRLGRRYDYWGQGTLVTVSS VL: DIQMTQSPSSLSASVGDRVTITCRASQTISRYLNWYQQKPGKAPKLLIYSASTLQSGVPSRFSGSGSGTDFTLTISSLQPEDFATYYCQQSYSTPHTFGGGTKVEIK",binding result,[1],binds
same,binding result,[2],binds
"A2A-19 (antibody, V domains shown, Tested as IgG) VH: EVQLVESGGGLVKPGGSLRLSCAASGFTFSGYAMNWVRQAPGKGLEWVSTISGSGASTYYADSVKGRFTISRDNSKNTLYLQMNSLRAEDTAVYYCAAARGYKRWRLGRRYDYWGQGTLVTVSS VL: DIQMTQSPSSLSASVGDRVTITCRASQSISDYLNWYQQKPGKAPKLLIYTASTLQSGVPSRFSGSGSGTDFTLTISSLQPEDFATYYCEQSYSTPWTFGGGTKLEIK",binding result,[1],binds
"A2A-35 (antibody, V domains shown, Tested as IgG) VH: EVQLVESGGGLVKPGGSLRLSCAASGFTFSTYGMSWVRQAPGKGLEWVSGISGSGGSTNYADSVKGRFTISRDNSKNTLYLQMNSLRAEDTAVYYCAAARGKWRWRLGRRYDYWGQGTLVTVSS VL: DIQMTQSPSSLSASVGDRVTITCRASQSIGRYLNWYQQKPGKAPKLLIYAASSLHSGVPSRFSGSGSGTDFTLTISSLQPEDFATYYCQQSYVTPWTFGGGTKVEIK",binding result,[1],binds
"A2A-27 (antibody, V domains shown, Tested as IgG; also called A2A-27 (Alloy)) VH: EVQLVESGGGLVKPGGSLRLSCAASGFTFSSYAMAWVRQAPGKGLEWVSAISGSGGSTYFADSVKGRFTISRDNSKNTLYLQMNSLRAEDTAVYYCAAARGYWRWRLWRRYDYWGQGTLVTVSS VL: DIQMTQSPSSLSASVGDRVTITCRASQSIGSYLNWYQQKPGKAPKLLIYGASNLQSGVPSRFSGSGSGTDFTLTISSLQPEDFATYYCQQGYSAPRTFGGGTKLEIK",binding result,[1],binds
same,binding result,[2],binds
"A2A-15 (antibody, V domains shown) VH: EVQLVESGGGLVKPGGSLRLSCAASGFTFSTYGMSWVRQAPGKGLEWVSGISGSGGSTNYADSVKGRFTISRDNSKNTLYLQMNSLRAEDTAVYYCAAARGKWRWRLGRRYDYWGQGTLVTVSS VL: DIQMTQSPSSLSASVGDRVTITCRASQSIGRYLNWYQQKPGKAPKLLIYAASSLHSGVPSRFSGSGSGTDFTLTISSLQPEDFATYYCQQSYVTPWTFGGGTKLEIK",binding result,[3],no binding (tested: 100 nM)
A2A-88 (antibody) heavy chain variable region: EVQLVESGGGLVKPGGSLRLSCAASGFTFRTYGMHWVRQAPGKGLEWVAVISAEGSNKYYADSVKGRFTISRDNSKNTLYLQMNSLRAEDTAVYYCARDGRGSLPRPKGGFIGALSFHWPFGRWLGGSYGTYDSSEDSGGAFDIWGQGTLVTVSS light chain variable region: QSVLTQPPSVSAAPGQKVTISCSGISSNIGNNYVSWYQQLPGTAPKLLIYDNNKRASGIPDRFSGSKSGTSATLGITGLQTGDEADYYCGTWDTSLSAGVFGGGTKLTVL,binding result,[1],binds
"A2A – 80 (antibody, V domains shown, panel 'Immune Library to A2a protein + ZM241385') VH: QVQLVQSGGGLVKPGGSLRLSCAASGFTISTYDIYWVRQATGKGLEWVSAIGTAGDTYYPGSVKGRFTISRENAKNSLYLQMNSLRAGDTAVYYCASGYNWIFDYWGQGTLVTVSS VL: ELTLTQSPGTLSLSPGERATLSCRASQSVSSNLAWYQQKPGQAPRLLIYGASTRATGTPARFSGSGSGTEFTLTISSLQSEDFAVYYCQQYGSSPPTFGQGTRLEIK",binding result,[4],binds
"A2A-84 (antibody, V domains shown, Tested as IgG) VH: EVQLVESGGGLVKPGGSLRLSCAASGYTFTEYITHWVRQAPGKGLEWVATISGGGSYTNFPDSVKGRFTISRDNAKNTLFLQMTSLRSEDTAMYYCARPNYSGSSPFAYWGQGTLVTVSA VL: DIVMTQAPAIMSASPGEKVTMTCSASSSVSYMYWYQQKPGSSPRFLIYDTSNLASGVPVRFSGSGSGTSYSLTISSMEAEDAATYYCQQWNSNPLTFSAGTKLEIK",binding result,[5],binds
"A2A – 79 (antibody, V domains shown, panel 'Immune Library to A2a protein + ZM241385') VH: QVQLQESGGGVVRPGGSLRLSCAASGFTFDDYGMSWVRQVPGKGLEWVSGITWNGDRSGYADSVKGRFTISRDNAKNSLYLQMNSLRAEDTALYYCVRDGLTGIFDYWGQGTLVTVSS VL: ELTLTQSPATLSVSPGERATLSCRASQSVSSYLAWYQQKPGQAPRLLIYGASSRATGIPDRFSGSGSGTDFTLTISRLEPEDFAVYYCQQYGNSYTFGQGTKVDIK",binding result,[4],binds
"A2A-9 (antibody, V domains shown, Tested as IgG) VH: EVQLQQSGPGLVKPSQSLSLTCSVTGYSITSGYYWNWIRQFPGKKLEWMGYIRYDGSNNYNPSLKNRISITRDTSKNQFFLKLNSVTTDDTATYYCARVHHYYGSSYFDYWGQGTTLTVSS VL: DIVMTQSQKFMSTSVGDRVSATCKASQNVGSSVAWFQQKPGQSPKALIYSTSYRYSGVPDRFTGSGSGTDFTLTISNVQSEDLAEYFCQQYNSYPLTFGAGTKLEIK",EC50,[6],3.83 nM
"A2A-83 (antibody, V domains shown, Tested as IgG) VH: EVQRVQSGAELVKPGASVKISCKASGYAFSSYWMNWVKQRPGKGLEWIGQIYPGDGDTNYNGKFEGKATLTADKSSSTAYMQLTSLTSDDSAVYYCARGAYWGQGTTLTVSS VL: DIQMKQSQKFMSTSVGDRVSVTCKASQNVGTNVAWYQQKPGQSPKALIYSASYRYSGVPDRFTGSGSGTDFTLTISNVQSGDLAEYFCQQYNSYPLTFGAGTKLEIK",binding result,[1],binds
"A2A-77 (antibody, V domains shown, Tested as IgG) VH: QVQLQESGPGLVKPSGTLSLTCAVSGGSISSSNWWSWVRQPPGKGLEWIGEIYHSGNTNYNPSLKSRVTMSVDKSKNQFSLNLHSVTAADTAVYYCAREVVSGMIGTIFDYWGQGTLVTVSS VL: ELVMTQSPSSLSASVGDRVTITCRASQRISSYLNWYQQKPGKAPKLLIYAASSLQSRVPSRFSGSGSGTDFTLTISSLQPEDFATYYCQQSYSTPLTFGGGTKLETK","IC50 (antagonistic cAMP assay, RFU ratio 665/615nm against IgG in nM)",[7],3.52 nM
same,"IC50, T cell activation assay (FIG. 32C)",[8],5.92 nM
same,EC50,[9],5.76 nM
same,EC50 (read off the curve),[4],~5 nM
"A2A-75 (antibody, V domains shown, Tested as IgG) VH: QVQLQESGPGLVKPSGTLSLTCAVSGGSISSSNWWSWVRQPPGKGLEWIGEIYHSGNTNYNPSLKSRVTMSVDKSKNQFSLNLHSVTAADTAVYYCAREVVSGMIGTIFDYWGQGTLVTVSS VL: ELVMTQFPSSLSASVGDRVTITCRASQSISSYLNWYQQKPGKAPKLLIYAASSLQSGVPSRFSGSGSGTDFTLTISSLQPEDFATYYCQQANSFPITFGQGTRLEIK",binding result,[1],no binding
"A2A-78 (antibody, V domains shown, Tested as IgG) VH: EVQLLESGGGLVQPGGSLRLSCAASGFTFSAYDIYWVRQPTGKGLEWVSAIGTAGDTYYPGSVKGRFIISRESAKNSVYLQMNSLRAGDTAVYYCAVGYNWVFDLWGQGTLVTVSS VL: not shown",EC50 (read off the curve),[4],~5 nM
